One molecule from patent publication US12564623B2, “Methods and compositions for treating cancer” (The University of Chicago, priority 2017, dated 2026) can be followed below.

A short description of data set [1]: Side effects in healthy non-tumor-bearing mice. It counts as in vivo, C57BL/6 mice. The settings on record: mammary fat pad, once a day for 5 consecutive days. As to the method: Human serum albumin (HSA; 11.6 μg)) or ELANE (11.6 μg) was injected into the mammary fat pad of healthy non-tumor-bearing C57BL/6 mice once a day for 5 consecutive days, and side effects were monitored. (a) Immunohistochemistry staining for apoptosis markers (TUNEL, cleaved CASP3 (c-CASP3), cleaved PARP (c-PARP)) 2 days after the final injection. (b) Delta body weight. (c) Spleen weight. (c) Blood ALT activity levels (a marker of liver function).
4 μM human albumin (Ctrl) or 4 μM ELANE was injected into the mammary fat pad of healthy non-tumor-bearing C57BL/6 mice once a day for 5 consecutive days, and side effects were monitored. Body weight, spleen weight, and blood ALT activity levels (a marker of liver function). Immunohistochemistry staining for apoptosis markers (cleaved CASP3 (c-CASP3), cleaved PARP (c-PARP)) 2 days after the final injection. Quantification of CD8+ effector cytotoxic T-cells (defined as CD3^+CD8^+CD62L^LOCD44^HI) in the blood 2 days after the final injection.

Data set [2] relates to E0771 cancer cells. The experiment in a line: ELANE with anti-PD-L1 in a mouse model of TNBC. Format: in vivo, C57BL/6 mice. Particulars: ELANE 11.6 μg + anti-PD-L1 100 μg. Here is the method: E0771 cancer cells were injected into C57BL/6 mice. Once tumors reached ˜100 mm^3, mice were randomly separated into four groups: ELANE (11.6 μg), PMSF-inactivated ELANE (PMSF-ELANE), anti-PD-L1 (BioXCell, 10F.9G2, 100 μg), and ELANE (11.6 μg)+anti-PD-L1 (100 μg). n=8-9 mice/group. Anti-PD-L1 monoclonal antibody was injected intaperitoneally on days 10, 14, 18, and 22 after tumor inoculation. ELANE or PMSF-ELANE were delivered intra-tumorally when tumors reached ˜[…] (˜ 14 days post cancer cell injection). (FIG. 20A) Tumor volume was measured by calipers. (FIG. 20B) Kaplan-Meier curve was plotted and the logrank test (Mentel-Cox method) was used for mouse survival analysis. End point of survival is defined as tumor volume >1000 mm^3. *, p<0.05, Student's t-test.

Data set [3] relates to E0771, B16F10, or LLC1 cancer cells. The experiment in a line: Tumoral immune cell analysis by flow cytometry. The settings on record: 11.6 μg intratumorally once/day for 5 days, day 6. Format: in vivo, C57BL/6 mice. As to the method:
E0771, B16F10, or LLC1 cancer cells were injected into C57BL/6 mice. Once tumors reached ˜100 mm^3, ELANE (11.6 μg) or PMSF-ELANE (11.6 μg) were delivered intratumorally once/day for 5 days. Tumors were isolated on day 6 and digested for immune cell analysis by flow cytometry. CD45+ cells are the total immune cells; macrophages (Mac) are defined as CD45+CD11b+CD11c^lowMHCII^low, neutrophils (Neu) are defined as CD45+CD11b+Ly6G+, dendritic cells (DC) are defined as CD45+CD11b+CD11c^highMHCII^high, B cells (b) are defined as CD45+B220+, NK cells (NK) are defined as CD45+NK1.1+CD16+, CD4+ T cells (CD4T) are defined as CD3+CD4+CD8−, CD8+ T cells (CD8T) are defined as CD3+CD8+CD4−, CD8 effector T cells (CD8Teff) are defined as CD3+CD8+CD4−CD62L−CD44+. *, p<0.05, Student's t-test. (FIG. 17)

For data set [4], the system named is MDA-MB-231 cells. Put plainly: ELANE inactivation by PMSF or A1AT and killing assay. Format: cell-based, human. Particulars: PMSF 100 nM or A1AT 42 nM for 30 mins; 24 hrs. Here is the method: (FIG. 5A) Purified native ELANE or PMN media was treated with PMSF (100 nM) or alpha-1-anti-trypsin (A1AT; 42 nM) for 30 mins and loss of ELANE catalytic activity was confirmed by a chromogenic substrate assay. Killing assays were performed by treating MDA-MB-231 cells for 24 hrs treatment and assessed by Calcein AM staining. (FIG. 5B) ELANE activity in PMN media was measured by a chromogenic substrate activity assay, and PMN killing was measured by Calcein AM staining on MDA-MB-231 cells exposed to PMN media for 4h.

Data set [5] deals with CD95. Put plainly: Recombinant CD95 degradation, SDS-PAGE and coomassie blue. It counts as biochemical, human. The settings on record: ELANE 0.05 μg, 1 μg recombinant protein, 2 hrs at 37° C. As to the method: ELANE lowers CD95 levels in cancer cells and reduced CD95 levels are associated with apoptosis. (FIG. 8A) Recombinant proteins (1 μg) corresponding to full length CD95 (FL-CD95), N-terminal domain of CD95 (amino acids 1-173; N-CD95), or C-terminal domain of CD95 (amino acids 157-320; C-CD95) were inbuated with ELANE (0.05 μg) or vehicle (Veh) for 2 hrs at 37° C. Degradation was assessed by SDS-PAGE followed by coomassie blue staining. […] (FIG. 8C) Cancer cells were treated with ELANE (50 nM) for 1 hr, fixed in 10% formalin, and stained with N- or C-terminal specific anti-CD95 antibodies (green). Hoechst 33342 solution was used for nuclear staining (blue). Images were taken under 40×.
ELANE selectively cleaves the C-terminal domain of CD95. […] Degradation was assessed by SDS-PAGE followed by staining with coomassie blue. […] Mel888 cancer cells were treated with ELANE (50 nM) for various times, and CD95 degradation was assessed by western blot analysis with a C-terminal specific anti-CD95 antibody.
Other serine proteases cleave the C-terminal domain of CD95, and the ability to cleave the C-terminal domain is associated with cancer cell killing. […] Degradation was assessed by SDS-PAGE followed by coomassie blue staining. […] Cell viability was assessed by Calcein AM staining.

B1: neutrophil elastase (protein, listed as Homo sapiens)
chain: MTLGRRLACLFLACVLPALLLGGTALASEIVGGRRARPHAWPFMVSLQLRGGHFCGATLIAPNFVMSAAHCVANVNVRAVRVVLGAHNLSRREPTRQVFAVQRIFENGYDPVNLLNDIVILQLNGSATINANVQVAQLPAQGRRLGNGVQCLAMGWGLLGRNRGIASVLQELNVTVVTSLCRRSNVCTLVRGRQAGVCFGDSGSPLVCNGLIHGIASFVRGGCASGLYPDAFAPVAQFVNWIDSIIQRSEDNPCPHPRDPDPASRTH
notes: purified native ELANE
For the molecule B1, the “side effects (body weight, spleen weight, blood ALT, apoptosis markers)” value in data set [1] is on record as “does not produce evident side-effects”. The “efficacy with anti-PD-L1” value in data set [2] is “enables anti-PDL1 efficacy”. The tumoral immune cells result in data set [3] is on record as “increases tumoral immune cells”. Also, the “dependence of cancer cell killing on catalytic activity” value in data set [4] is on record as “catalytic activity is required for its selective cancer cell killing”. In addition, the “cleavage of CD95 domains” value in data set [5] was “preferentially cleaves the C-terminal domain of CD95”.
